Source: US20150203577A1 (Chugai, published 2015)

T1: mouse FcγRIII (mouse, UniProt P08508 31-215)
T1 construct: Extracellular domain with C-terminal His tag, made in FreeStyle 293 cells; also called mFcγRIII; mFcgRIII
T1 chain: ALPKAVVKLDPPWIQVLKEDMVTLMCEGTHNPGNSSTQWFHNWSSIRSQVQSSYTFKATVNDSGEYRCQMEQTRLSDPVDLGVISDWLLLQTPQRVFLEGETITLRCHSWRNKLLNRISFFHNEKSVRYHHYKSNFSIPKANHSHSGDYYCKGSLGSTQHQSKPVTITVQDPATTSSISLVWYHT

T2: mouse FcγRII (mouse, UniProt P08101 30-210)
T2 construct: Extracellular domain with C-terminal His tag, made in FreeStyle 293 cells; also called mFcγRII; mFcgRII
T2 sequence: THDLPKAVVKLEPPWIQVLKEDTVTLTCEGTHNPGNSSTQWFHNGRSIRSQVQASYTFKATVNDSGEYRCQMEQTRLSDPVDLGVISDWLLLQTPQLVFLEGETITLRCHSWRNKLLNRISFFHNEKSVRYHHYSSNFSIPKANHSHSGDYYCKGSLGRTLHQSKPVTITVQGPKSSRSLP


How the values were obtained:
[1] = target: T1, mouse FcγRIII; experiment: SPR (Biacore), KD of H237-mIgG1/MRAL-k0 (same run) / KD of variant
Method: (§1) Each altered antibody was analyzed for its interaction with each Fcγ receptor prepared above using Biacore T100 (GE Healthcare Japan Corp.), Biacore T200 (GE Healthcare Japan Corp.), Biacore A100, or Biacore 4000. The running buffer used was HBS-EP+ (GE Healthcare Japan Corp.). The assay temperature was set to 25° C. The sensor chips used were chips prepared by immobilizing Protein L (ACTIGEN or BioVision) onto Series S Sensor Chip CM5 (GE Healthcare Japan Corp.) or Series S Sensor Chip CM4 (GE Healthcare Japan Corp.) by the amine coupling method.
(§2) In order to calculate the KD value of each altered antibody for FcγR, kinetic analysis was conducted according to the following method: first, the antibody of interest was captured onto any of these chips and allowed to interact with mFcγR diluted with a running buffer. For the obtained sensorgram, the assay results were globally fit into the 1:1 Langmuir binding model using Biacore Evaluation Software to calculate an association rate constant ka (L/mol/s) and a dissociation rate constant kd (1/s). From these values, the dissociation constant KD (mol/L) was calculated.

[2] = target: T2, mouse FcγRII; experiment: as above
Method: as §1, §2

[3] = target: T1, mouse FcγRIII; experiment: SPR (Biacore), antibody captured on Protein L
Method: as §1, §2

[4] = target: T2, mouse FcγRII; experiment: SPR (Biacore), antibody captured on Protein L
Method: as §1, §2

Row | Binder | relative mFcγRIII-binding activity (mIgG1 = 1) [1] [fold] | relative mFcγRII-binding activity (mIgG1 = 1) [2] [fold] | Kd [3] [µM] | Kd [4] [µM]
1 | H237-MB691/MRAL-k0 (antibody, mouse IgG1, kappa, copies: 2 + 2) heavy: QVQLQESGPGLVKPSETLSLTCAVSGHSISHDHAWSWVRQPPGEGLEWIGFISYSGITNYNPSLQGRVTISRDNSKNTLYLQMNSLRAEDTAVYYCARSLARTTAMDYWGEGTLVTVSSAKTTPPSVYPLAPGSAAQTNSMVTLGCLVKGYFPEPVTVTWNSGSLSSGVHTFPAVLQSDLYTLSSSVTVPSSTWPSETVTCNVAHPASSTKVDKKIVPRDCGCKPCICEVAEVEYVFIFPPKPKDVLTITLTPKVTCVVVDISKDDPEVQFSWFVDDVEVHTAQTQPREEQFNSTFRSVSELPIMHQDWLNGKEFKCRVNSAAFPAPIEKTISKTKGRPKAPQVYTIPPPKEQMAKDKVSLTCMITDFFPEDITVEWQWNGQPAENYKNTQPIMDTDGSYFVYSKLNVQKSNWEAGNTFTCSVLHEGLHNHHTEKSLSHSPGK light: not shown | 0.07 | 0.58 | 7.18 | 0.559
2 | H237-MB709/MRAL-k0 (antibody, mouse IgG1, kappa, copies: 2 + 2) heavy: QVQLQESGPGLVKPSETLSLTCAVSGHSISHDHAWSWVRQPPGEGLEWIGFISYSGITNYNPSLQGRVTISRDNSKNTLYLQMNSLRAEDTAVYYCARSLARTTAMDYWGEGTLVTVSSAKTTPPSVYPLAPGSAAQTNSMVTLGCLVKGYFPEPVTVTWNSGSLSSGVHTFPAVLQSDLYTLSSSVTVPSSTWPSETVTCNVAHPASSTKVDKKIVPRDCGCKPCICEPAEVETVFIFPPKPKDVLTITLTPKVTCVVVDISKDDPEVQFSWFVDDVEVHTAQTQPREEQFNSTFRSVSELPIMHQDWLNGKEFKCRVNSAAFPAPIEKTISKTKGRPKAPQVYTIPPPKEQMAKDKVSLTCMITDFFPEDITVEWQWNGQPAENYKNTQPIMDTDGSYFVYSKLNVQKSNWEAGNTFTCSVLHEGLHNHHTEKSLSHSPGK light: not shown | 0.06 | 0.78 | 7.69 | 0.345
3 | H237-MB694/MRAL-k0 (antibody, mouse IgG1, kappa, copies: 2 + 2) heavy: QVQLQESGPGLVKPSETLSLTCAVSGHSISHDHAWSWVRQPPGEGLEWIGFISYSGITNYNPSLQGRVTISRDNSKNTLYLQMNSLRAEDTAVYYCARSLARTTAMDYWGEGTLVTVSSAKTTPPSVYPLAPGSAAQTNSMVTLGCLVKGYFPEPVTVTWNSGSLSSGVHTFPAVLQSDLYTLSSSVTVPSSTWPSETVTCNVAHPASSTKVDKKIVPRDCGCKPCICEDPEVEYVFIFPPKPKDVLTITLTPKVTCVVVDISKDDPEVQFSWFVDDVEVHTAQTQPREEQFNSTFRSVSELPIMHQDWLNGKEFKCRVNSAAFPAPIEKTISKTKGRPKAPQVYTIPPPKEQMAKDKVSLTCMITDFFPEDITVEWQWNGQPAENYKNTQPIMDTDGSYFVYSKLNVQKSNWEAGNTFTCSVLHEGLHNHHTEKSLSHSPGK light: not shown | 0.03 | 0.54 | 16.4 | 0.598
4 | H237-MB703/MRAL-k0 (antibody, mouse IgG1, kappa, copies: 2 + 2) heavy: QVQLQESGPGLVKPSETLSLTCAVSGHSISHDHAWSWVRQPPGEGLEWIGFISYSGITNYNPSLQGRVTISRDNSKNTLYLQMNSLRAEDTAVYYCARSLARTTAMDYWGEGTLVTVSSAKTTPPSVYPLAPGSAAQTNSMVTLGCLVKGYFPEPVTVTWNSGSLSSGVHTFPAVLQSDLYTLSSSVTVPSSTWPSETVTCNVAHPASSTKVDKKIVPRDCGCKPCICEAPEVENVFIFPPKPKDVLTITLTPKVTCVVVDISKDDPEVQFSWFVDDVEVHTAQTQPREEQFNSTFRSVSELPIMHQDWLNGKEFKCRVNSAAFPAPIEKTISKTKGRPKAPQVYTIPPPKEQMAKDKVSLTCMITDFFPEDITVEWQWNGQPAENYKNTQPIMDTDGSYFVYSKLNVQKSNWEAGNTFTCSVLHEGLHNHHTEKSLSHSPGK light: not shown | 0.1 | 0.94 | 4.9 | 0.345
5 | H237-MB693/MRAL-k0 (antibody, mouse IgG1, kappa, copies: 2 + 2) heavy: QVQLQESGPGLVKPSETLSLTCAVSGHSISHDHAWSWVRQPPGEGLEWIGFISYSGITNYNPSLQGRVTISRDNSKNTLYLQMNSLRAEDTAVYYCARSLARTTAMDYWGEGTLVTVSSAKTTPPSVYPLAPGSAAQTNSMVTLGCLVKGYFPEPVTVTWNSGSLSSGVHTFPAVLQSDLYTLSSSVTVPSSTWPSETVTCNVAHPASSTKVDKKIVPRDCGCKPCICTDYEVEYVFIFPPKPKDVLTITLTPKVTCVVVDISKDDPEVQFSWFVDDVEVHTAQTQPREEQFNSTFRSVSELPIMHQDWLNGKEFKCRVNSAAFPAPIEKTISKTKGRPKAPQVYTIPPPKEQMAKDKVSLTCMITDFFPEDITVEWQWNGQPAENYKNTQPIMDTDGSYFVYSKLNVQKSNWEAGNTFTCSVLHEGLHNHHTEKSLSHSPGK light: not shown | 0.09 | 1.22 | 5.41 | 0.267
6 | H237-MB700/MRAL-k0 (antibody, mouse IgG1, kappa, copies: 2 + 2) heavy: QVQLQESGPGLVKPSETLSLTCAVSGHSISHDHAWSWVRQPPGEGLEWIGFISYSGITNYNPSLQGRVTISRDNSKNTLYLQMNSLRAEDTAVYYCARSLARTTAMDYWGEGTLVTVSSAKTTPPSVYPLAPGSAAQTNSMVTLGCLVKGYFPEPVTVTWNSGSLSSGVHTFPAVLQSDLYTLSSSVTVPSSTWPSETVTCNVAHPASSTKVDKKIVPRDCGCKPCICEVPEEEYVFIFPPKPKDVLTITLTPKVTCVVVDISKDDPEVQFSWFVDDVEVHTAQTQPREEQFNSTFRSVSELPIMHQDWLNGKEFKCRVNSAAFPAPIEKTISKTKGRPKAPQVYTIPPPKEQMAKDKVSLTCMITDFFPEDITVEWQWNGQPAENYKNTQPIMDTDGSYFVYSKLNVQKSNWEAGNTFTCSVLHEGLHNHHTEKSLSHSPGK light: not shown | 0.04 | 0.56 | 11.6 | 0.582

Stronger by Kd [3], values ahead:

Row | relative mFcγRIII-binding activity (mIgG1 = 1) [1] [fold] | relative mFcγRII-binding activity (mIgG1 = 1) [2] [fold] | Kd [3] [µM] | Kd [4] [µM] | Binder
7 | 0.19 | 1.6 | 2.71 | 0.204 | H237-MB690/MRAL-k0 (antibody, mouse IgG1, kappa, copies: 2 + 2) heavy: QVQLQESGPGLVKPSETLSLTCAVSGHSISHDHAWSWVRQPPGEGLEWIGFISYSGITNYNPSLQGRVTISRDNSKNTLYLQMNSLRAEDTAVYYCARSLARTTAMDYWGEGTLVTVSSAKTTPPSVYPLAPGSAAQTNSMVTLGCLVKGYFPEPVTVTWNSGSLSSGVHTFPAVLQSDLYTLSSSVTVPSSTWPSETVTCNVAHPASSTKVDKKIVPRDCGCKPCICTPAEVEYVFIFPPKPKDVLTITLTPKVTCVVVDISKDDPEVQFSWFVDDVEVHTAQTQPREEQFNSTFRSVSELPIMHQDWLNGKEFKCRVNSAAFPAPIEKTISKTKGRPKAPQVYTIPPPKEQMAKDKVSLTCMITDFFPEDITVEWQWNGQPAENYKNTQPIMDTDGSYFVYSKLNVQKSNWEAGNTFTCSVLHEGLHNHHTEKSLSHSPGK light: not shown
8 | 0.14 | 0.96 | 3.52 | 0.339 | H237-MB702/MRAL-k0 (antibody, mouse IgG1, kappa, copies: 2 + 2) heavy: QVQLQESGPGLVKPSETLSLTCAVSGHSISHDHAWSWVRQPPGEGLEWIGFISYSGITNYNPSLQGRVTISRDNSKNTLYLQMNSLRAEDTAVYYCARSLARTTAMDYWGEGTLVTVSSAKTTPPSVYPLAPGSAAQTNSMVTLGCLVKGYFPEPVTVTWNSGSLSSGVHTFPAVLQSDLYTLSSSVTVPSSTWPSETVTCNVAHPASSTKVDKKIVPRDCGCKPCICTAYEVENVFIFPPKPKDVLTITLTPKVTCVVVDISKDDPEVQFSWFVDDVEVHTAQTQPREEQFNSTFRSVSELPIMHQDWLNGKEFKCRVNSAAFPAPIEKTISKTKGRPKAPQVYTIPPPKEQMAKDKVSLTCMITDFFPEDITVEWQWNGQPAENYKNTQPIMDTDGSYFVYSKLNVQKSNWEAGNTFTCSVLHEGLHNHHTEKSLSHSPGK light: not shown
9 | 0.12 | 1.75 | 4.44 | 0.186 | H237-MB692/MRAL-k0 (antibody, mouse IgG1, kappa, copies: 2 + 2) heavy: QVQLQESGPGLVKPSETLSLTCAVSGHSISHDHAWSWVRQPPGEGLEWIGFISYSGITNYNPSLQGRVTISRDNSKNTLYLQMNSLRAEDTAVYYCARSLARTTAMDYWGEGTLVTVSSAKTTPPSVYPLAPGSAAQTNSMVTLGCLVKGYFPEPVTVTWNSGSLSSGVHTFPAVLQSDLYTLSSSVTVPSSTWPSETVTCNVAHPASSTKVDKKIVPRDCGCKPCICEPPEVEYVFIFPPKPKDVLTITLTPKVTCVVVDISKDDPEVQFSWFVDDVEVHTAQTQPREEQFNSTFRSVSELPIMHQDWLNGKEFKCRVNSAAFPAPIEKTISKTKGRPKAPQVYTIPPPKEQMAKDKVSLTCMITDFFPEDITVEWQWNGQPAENYKNTQPIMDTDGSYFVYSKLNVQKSNWEAGNTFTCSVLHEGLHNHHTEKSLSHSPGK light: not shown
